To fix the notation:
B1: 2.19 (antibody, V domains shown)
VH: QVQLQESGPGLVKPSETLSLTCTVSGDSISSYYWSWIRQPPGKGLEWIGYVYYSGSTNYNPSLKSRVTMSVDTSKNQFSLKLSSVTAADTAVYYCARDLELYAFDIWGQGTMVTVSS
VL: EIVLTQFPGTLSLSPGERVTLSCRASQSVSSTYVVWYQQKPGQAPRLLIYGASSRATGIPDRFSGSGSGTDFTLTISRLEPEDFAVYYCQQHGSSPWTFGQGTKVEIK
B2: 10.1 (antibody, V domains shown)
VH: QVQLQQSGPGLVKPSETLSLTCTVSGASISSYYWSWIRQPAGKGLEWIGRIYASGSTNYNPSLKSRVTMSVDTSKSQFSLNLSSVTAADTAVYYCAREGWERLQDYYYYGLDVWGQGTTVTVSS
VL: B1 VL with F7S, V19A, S31R, T32N, V34L, V35A, Y37N, H92Y, W97L, Q101G
B3: 2.7 (antibody, V domains shown)
VH: EVQLVESGGGLVKPGGSLRLSCAASGFTFSNAWMSWVRQAPGKGLEWVGRIKRKTDGETTDYAAPVKGRFTISRDDSRNTLYLQMNSLKTEDTAVYYCTIYTYYYGMDVWGQGTTVTVSS
VL: DIQMTQSPSSLSASVGDRVTITCRASQSINNYLNWYQQKPGKAPKLLIYAASSLESGVPSRFSGSGSGTDFTLTISSLQPEDFATYYCQQSYSTPPTFGQGTKVEIK
B4: 6.17 (antibody, V domains shown)
VH: EVQLVQSGAEVKKPGESLRISCKGSGYSVSSYWIGWVRQMPGKGLEWMGIIYPGDSDTRYSPSFQGQVTISADKSISTAFLQWISLKASDTAMYYCARLQGDCSGGSCYGHFDYWGQGTLVTVS
VL: EIVLTQSPGTLSLSPGERATLSCRASQTISSGYLAWYQQKPAQAPRLLIYVASRRATGIPDRFSGSGSGTDFTLTISRLEPEDFAVYYCQQYGSSSWTFGQGTTVEIK
B5: 6.18 (antibody, V domains shown)
VH: B4 VH with S30T, F80Y, I84S, S107T
VL: B4 VL with T28S, I29V, G32S, S94T
B6: 6.48 (antibody, V domains shown)
VH: B4 VH with Y114C
VL: DVVLTQSPLSLPVTLGQPASISCRSSQSLVNSDGDTYLSWFQQWPGQSPRRLFYEVSNWDSGVPDRFSGSGSGTDFTLKISRVEAEDVGVYYCMQGTHWLTFGGGTKVEIK
B7: 3.2 (antibody, V domains shown)
VH: QVQLVESGGGVVQPGRSLRLSCAASGFTFSSYGIHWVRQAPGKGLEWVAVIWYDGSDIYYADSVKGRFTISRDNSKNTLYLQMNSLRAEDTALYYCARESSGWTFDYWGQGTLVTVSS
VL: QSALTQPASVSGSPGQSITISCTGTSSDVGGYNYVSWYQQHPGKAPKLMIYEVSNRPSGISNRFSGSKSGNTASLTISGLQAEDEADYYCSSYTSSSTIIFGGGTKLTVL
B8: 2.25 (antibody, V domains shown)
VH: QVQLQQSGPGLVKPSQTLSLTCAISGDSVSSNSAAWNWIRQSPSRGLEWLGRTYYMSKWYNDYAVSVKSRITINPDTSKNQFSLQLNSVTPEDTAVYYCARARYCGGDCYDFDYWGQGTLVTVSS
VL: B3 VL with Q6H, N30S, N31I, Y32S, K42N, E55Q, V58I, Y92F, P96W
B9: 2.1 (antibody, V domains shown)
VH: QVQLQESGPGLVKPSQTLSLTCTVSGGSISSGGYYWSWIRQHPGKGLEWIGYIYNSGSTYYNPSLKSRGTISADTSKNQFSLKLSSVTAADTAVYYCARGSSSYYWYFDLWGRGTLVTVSS
VL: DIQMTQSPSSMSASVGDRVTITCRASQRISSNLNWYQQKPGKAPKFLIYGASSLQSGVPSRFSGSGSGTDFTLTISSLRPEDFATYYCQQSYSTPYTFGPGTKVDIK
B10: 2.11 (antibody, V domains shown)
VH: QVQLQESGPGLVKPSQTLSLTCTVSGGSINSGGYYWSWIRQHPGKGLEWIGYIFYSGSTYYNPSLKSRVNISVDTSKNQFSLKMSSVTAADTAVYYCARDQDGFDYWGQGTLVTVSS
VL: DIVMTQTPLSLPVTPGEPASISCRSSQSLLDSDDGNTYLDWYLQKPGQSPQLLIYTLSYRASGVPDRFSGSGSGTDFTLKISRVEAEDVGVYYCMQRIEFPWTFGQGTKVEIK
B11: 6.3 (antibody, V domains shown)
VH: QVLLQESGPGLVKPSQTLSLTCTVSGGSISSGGYYWSWIRQHPGKGLEWIGYINYSGSAYYNPSLKSRVTISVDTSKNQFSLKLSSVTAADTAVYYCARDHWLLRGFDYWGQGTLVTVSS
VL: DIVMTQTPLSLSVTPGQPASISCKSSQSLLHSDGKTYLYWYLQKPGQPPQLLIYEVSNRFSGVPDRFSGSGSGTDFTLKISRVEAEDVGVYYCMQSIQLPRTFGQGTKVEIK

Changes are numbered by the printed parent chain.

Sequence of I domain-GST, recombinant GST fusion protein containing amino acids 127-340 of the human VLA-1 α1 subunit (human) (P56199 151-364 limits assumed, form in doubt): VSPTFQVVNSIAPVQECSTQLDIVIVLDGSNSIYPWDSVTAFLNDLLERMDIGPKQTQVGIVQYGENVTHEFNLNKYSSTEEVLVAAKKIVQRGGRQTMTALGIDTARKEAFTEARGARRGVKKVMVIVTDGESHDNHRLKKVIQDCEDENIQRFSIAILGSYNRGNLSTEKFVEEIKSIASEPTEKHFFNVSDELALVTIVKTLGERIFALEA

For the first test, the target named is biotinylated I domain-GST (human) (UniProt P56199). As to the kind of experiment: competition: I domain-btn binding to immobilized collagen IV, streptavidin-HRP.
The molecule B1 returned an IC50 of 3 nM.
On the same count and under the same terms, next, B2: 3.1 nM; B3: 2.4 nM.
Same read-out and setting: next, B4: 7.6 nM; B5: 3.3 nM; B6: 6.1 nM.
For B7, the IC50 was determined as 1.6 nM.

Substrate in the next test: I domain-GST, recombinant GST fusion protein containing amino acids 127-340 of the human VLA-1 α1 subunit (human) (UniProt P56199)
The experiment in a line: SPR, mAb captured on anti-human IgG, I domain-GST in solution, no Mg2+.
Consider B1, for which the Kd amounted to 0.478 nM, the koff came to 5.93e-05 s⁻¹ and the kon was 124000 M⁻¹ s⁻¹.
The like results for B2 were, in that order, 1.04 nM, 0.000173 s⁻¹ and 166000 M⁻¹ s⁻¹.
Turning to B8, the Kd amounted to 1.46 nM, the koff is 0.000111 s⁻¹ and the kon was 75800 M⁻¹ s⁻¹.
The like results for B9 were, in that order, 4.62 nM, 0.00211 s⁻¹ and 456000 M⁻¹ s⁻¹.
The like results for B10 were, in that order, 0.889 nM, 0.000208 s⁻¹ and 234000 M⁻¹ s⁻¹.
The like results for B11 were, in that order, 1.69 nM, 0.000243 s⁻¹ and 144000 M⁻¹ s⁻¹.
As for B4, the Kd was 1.63 nM, the koff was determined as 0.000154 s⁻¹ and the kon was 94600 M⁻¹ s⁻¹.

Substrate in another test: I domain-GST, recombinant GST fusion protein containing amino acids 127-340 of the human VLA-1 α1 subunit (human) (UniProt P56199)
The experiment in a line: SPR, mAb captured on anti-human IgG, I domain-GST in solution, 1 mM Mg2+.
Turning to B1, the Kd is 0.243 nM, the koff was 0.000131 s⁻¹ and the kon is 538000 M⁻¹ s⁻¹.
The like results for B8 were, in that order, 1.57 nM, 1.3e-05 s⁻¹ and 8300 M⁻¹ s⁻¹.
The like results for B7 were, in that order, 0.04 nM, 1.43e-05 s⁻¹ and 354000 M⁻¹ s⁻¹.

Substrate in the next test: I domain-GST, recombinant GST fusion protein containing amino acids 127-340 of the human VLA-1 α1 subunit (human) (UniProt P56199)
The experiment in a line: SPR, mAb captured on anti-human IgG, I domain-GST in solution, no Mg2+, titration screen (*).
As for B3, the koff is 8.22e-05 s⁻¹ and the kon came out at 134000 M⁻¹ s⁻¹.
With B5, the Kd was determined as 0.574 nM, the koff was 7.08e-05 s⁻¹ and the on-rate constant (kon) amounted to 123000 M⁻¹ s⁻¹.

Substrate in the next test: I domain-GST, recombinant GST fusion protein containing amino acids 127-340 of the human VLA-1 α1 subunit (human) (UniProt P56199)
The experiment in a line: SPR, mAb captured on anti-human IgG, I domain-GST in solution, 1 mM Mg2+, titration screen (*).
With B2, the Kd was 0.068 nM, the koff is 3.1e-05 s⁻¹ and the kon amounted to 453000 M⁻¹ s⁻¹.
The like results for B3 were, in that order, 0.117 nM, 3.77e-05 s⁻¹ and 321000 M⁻¹ s⁻¹.
Regarding B10, the Kd amounted to 0.025 nM, the koff turned out to be 8e-06 s⁻¹ and the kon was found to be 318000 M⁻¹ s⁻¹.
The like results for B4 were, in that order, 0.255 nM, 0.000136 s⁻¹ and 533000 M⁻¹ s⁻¹.
Take B5: the Kd came out at 0.138 nM, the koff came to 7.2e-05 s⁻¹ and the kon stood at 523000 M⁻¹ s⁻¹.
The like results for B6 were, in that order, 0.216 nM, 0.000121 s⁻¹ and 561000 M⁻¹ s⁻¹.

Substrate in the next test: I domain-GST, recombinant GST fusion protein containing amino acids 127-340 of the human VLA-1 α1 subunit (human) (UniProt P56199)
The experiment in a line: competition: I domain-GST binding to immobilized collagen IV, anti-GST-HRP.
For B1, the IC50 was found to be 7.4 nM.
For the molecule B2, the IC50 turned out to be 5.5 nM.
As for B3, the half-inhibitory concentration (IC50) amounted to 6.4 nM.
On the same count and under the same terms, next, B4: 12 nM; B5: 7.6 nM.
Same read-out and setting: the same measure for B6: 9.8 nM.
Regarding B7, the IC50 is 3.2 nM.
